The assay concerns the target hDOP–C352I Gαi2. Nature of the assay: radioligand binding.

Drawing on PMC2474558, this text covers pKi for one substance.

As usually defined, the pKi is −log10 of the Ki, conventionally taken in molar units. High values mean a low Ki, low ones a high Ki.

In the case of “DADLE (D-Ala^2, Leu^5-enkephalin) (peptide)”, the pKi stood at 9.
